From patent publication US9296810 (Novartis, dated 2016)
Substitutions are numbered along the chain they refer to.

B1: SEQ ID NO 76 (designed binder)
chain: VSDVPRDLEVVAATPTSLLISWDAPAVTVRYYRITYGESSGRYRQEFTVPGSKSTATISRYPHGVDYTITVYAVTGRGESPASSKPISINYAKNV
B2: SEQ ID NO 55 (designed binder)
chain: VSDVPRDLEVVAATPTSLLISWDAPAVTVRYYRITYGEGQGAGASQEFTVPGSKSTATISGAEPAVDYTITVYAVTGRGESPASSKPISINYGPRY
B3: SEQ ID NO 67 (designed binder)
chain: VSDVPRDLEVVAATPTSLLISWDAPAVTVRYYRITYGEYYARPEYQEFTVPGSKSTATISYYEPEVDYTITVYAVTGRGESPASSKPISINYRSYP
B4: SEQ ID NO 58 (designed binder)
chain: VSDVPRDLEVVAATPTSLLISWDAPAVTVRYYRITYGESSHGRSQEFTVPGSKSTATISSSSSRVDYTITVYAVTGRGESPASSKPISINYGYRG
B5: SEQ ID NO 59 (designed binder)
chain: B4 chain with S39Y, S40G, H41Y, G42S, S60Y, S63P, Y93S, G95Y
B6: SEQ ID NO 64 (designed binder)
chain: VSDVPRDLEVVAATPTSLLISWDAPAVTVRYYRITYGERRSHRERQEFTVPGSKSTATISRRRRRVDYTITVYAVTGRGESPASSKPISINYSRRR
B7: SEQ ID NO 71 (designed binder)
chain: VSDVPRDLEVVAATPTSLLISWDAPAVTVRYYRITYGERGSGLGYQEFTVPGSKSTATISSRAYRVDYTITVYAVTGRGESPASSKPISINYALYE
B8: SEQ ID NO 78 (designed binder)
chain: VSDVPRDLEVVAATPTSLLISWDAPAVTVRYYRITYGEQRARSRQEFTVPGSKSTATISEQRRRVDYTITVYAVTGRGESPASSKPISINYRALL
B9: SEQ ID NO 54 (designed binder)
chain: VSDVPRDLEVVAATPTSLLISWDAPAVTVRYYRITYGESLRSREGQEFTVPGSKSTATISGRQESVDYTITVYAVTGRGESPASSKPISINYGQRY
B10: SEQ ID NO 65 (designed binder)
chain: VSDVPRDLEVVAATPTSLLISWDAPAVTVRYYRITYGERLREGGSQEFTVPGSKSTATISRAGERVDYTITVYAVTGRGESPASSKPISINYAQYP
B11: SEQ ID NO 44 (designed binder)
chain: VSDVPRDLEVVAATPTSLLISWDAPAVTVRYYRITYGESSLGSEQEFTVPGSKSTATISEYAPYVDYTITVYAVTGRGESPASSKPISINYYGPG
B12: SEQ ID NO 74 (designed binder)
chain: VSDVPRDLEVVAATPTSLLISWDAPAVTVRYYRITYGEYEPYGSQYQEFTVPGSKSTATISERQHAVDYTITVYAVTGRGESPASSKPISINYRRYE
B13: SEQ ID NO 72 (designed binder)
chain: VSDVPRDLEVVAATPTSLLISWDAPAVTVRYYRITYGERGGYSSQEFTVPGSKSTATISSRYRQVDYTITVYAVTGRGESPASSKPISINYQSYS
B14: SEQ ID NO 61 (designed binder)
chain: VSDVPRDLEVVAATPTSLLISWDAPAVTVRYYRITYGEPRSEEGEQEFTVPGSKSTATISRRYSLVDYTITVYAVTGRGESPASSKPISINYYSSR
B15: SEQ ID NO 57 (designed binder)
chain: VSDVPRDLEVVAATPTSLLISWDAPAVTVRYYRITYGEGSLLYHSQEFTVPGSKSTATISYGPASVDYTITVYAVTGRGESPASSKPISINYRRRY
B16: SEQ ID NO 66 (designed binder)
chain: VSDVPRDLEVVAATPTSLLISWDAPAVTVRYYRITYGEYYRSYYQEFTVPGSKSTATISSYEPPVDYTITVYAVTGRGESPASSKPISINYRRYL
B17: SEQ ID NO 77 (designed binder)
chain: B16 chain with Y40R, S42R, Y43A, Y44R, S60E, Y61H, P64L, R92Y, R93S, L95Y
B18: SEQ ID NO 80 (designed binder)
chain: B16 chain with Y39S, Y40R, Y44P, Y61S, E62H, P63R, P64S, R93S
B19: SEQ ID NO 62 (designed binder)
chain: VSDVPRDLEVVAATPTSLLISWDAPAVTVRYYRITYGEAASSRLRQEFTVPGSKSTATISSYSGLVDYTITVYAVTGRGESPASSKPISINYYSSY
B20: SEQ ID NO 81 (designed binder)
chain: VSDVPRDLEVVAATPTSLLISWDAPAVTVRYYRITYGESHHYGPQEFTVPGSKSTATISLLGAHVDYTITVYAVTGRGESPASSKPISINYHGLY
B21: SEQ ID NO 75 (designed binder)
chain: VSDVPRDLEVVAATPTSLLISWDAPAVTVRYYRITYGEYGGSQAQEFTVPGSKSTATISREYGSVDYTITVYAVTGRGESPASSKPISINYALGE
B22: SEQ ID NO 43 (designed binder)
chain: VSDVPRDLEVVAATPTSLLISWDAPAVTVRYYRITYGEEAYRSEGQEFTVPGSKSTATISSYGQGVDYTITVYAVTGRGESPASSKPISINYEGSE
B23: SEQ ID NO 45 (designed binder)
chain: VSDVPRDLEVVAATPTSLLISWDAPAVTVRYYRITYGEQAQEEGQEFTVPDSKSTATISAHRSYVDYTITVYAVTGRGESPASSKPISINYYYGE
B24: SEQ ID NO 79 (designed binder)
chain: VSDVPRDLEVVAATPTSLLISWDAPAVTVRYYRITYGERRRRYGQEFTVPGSKSTATISSRSRGVDYTITVYAVTGRGESPASSKPISINYLYPY
B25: SEQ ID NO 70 (designed binder)
chain: VSDVPRDLEVVAATPTSLLISWDAPAVTVRYYRITYGESHQGLSYQEFTVPGSKSTATISPGSSSVDYTITVYAVTGRGESPASSKPISINYRYYR
B26: SEQ ID NO 56 (designed binder)
chain: VSDVPRDLEVVAATPTSLLISWDAPAVTVRYYRITYGEYLYHHGQEFTVPGSKSTATISYRSAPVDYTITVYAVTGRGESPASSKPISINYRHER
B27: SEQ ID NO 60 (designed binder)
chain: VSDVPRDLEVVAATPTSLLISWDAPAVTVRYYRITYGEYRYAYAYGQEFTVPGSKSTATISRSSPRVDYTITVYAVTGRGESPASSKPISINYPRRY
B28: SEQ ID NO 46 (designed binder)
chain: VSDVPRDLEVVAATPTSLLISWDAPAVTVRYYRITYGEYRSYRSERQEFTVPGSKSTATISRGYRAVDYTITVYAVTGRGESPASSKPISINYSYRY
B29: SEQ ID NO 50 (designed binder)
chain: VSDVPRDLEVVAATPTSLLISWDAPAVTVRYYRITYGESLYYHQEFTVPGSKSTATISASYYAVDYTITVYAVTGRGESPASSKPISINYSYHL
B30: SEQ ID NO 69 (designed binder)
chain: VSDVPRDLEVVAATPTSLLISWDAPAVTVRYYRITYGEYRSSSYYQEFTVPGSKSTATISYPSERVDYTITVYAVTGRGESPASSKPISINYQSSA
B31: SEQ ID NO 47 (designed binder)
chain: VSDVPRDLEVVAATPTSLLISWDAPAVTVRYYRITYGEERGYERSRQEFTVPGSKSTATISESYRYVDYTITVYAVTGRGESPASSKPISINYPHSY
B32: SEQ ID NO 49 (designed binder)
chain: VSDVPRDLEVVAATPTSLLISWDAPAVTVRYYRITYGERGSEAERQEFTVPGSKSTATISQAYYGVDYTITVYAVTGRGESPASSKPISINYSYAS
B33: SEQ ID NO 48 (designed binder)
chain: VSDVPRDLEVVAATPTSLLISWDAPAVTVRYYRITYGEQSGLSEHQEFTVPGSKSTATISSLRYYVDYTITVYAVTGRGESPASSKPISINYAYEY
B34: SEQ ID NO 73 (designed binder)
chain: VSDVPRDLEVVAATPTSLLISWDAPAVTVRYYRITYGERGYPGQEFTVPGSKSTATISEYSHSVDYTITVYAVTGRGESPASSKPISINYAQYQ
B35: SEQ ID NO 52 (designed binder)
chain: VSDVPRDLEVVAATPTSLLISWDAPAVTVRYYRITYGESSRSPRGQEFTVPGSKSTATISRAEYRVDYTITVYAVTGRGESPASSKPISINYYLRQ
B36: SEQ ID NO 53 (designed binder)
chain: B35 chain with R41P, S42E, P43Y, R61L, A62E, R65E, A83T, Y93Q, L94Y, Q96Y
B37: SEQ ID NO 83 (designed binder)
chain: VSDVPRDLEVVAATPTSLLISWDAPAVTVRYYRITYGEAHEYYYQEFTVPGSKSTATISRSSSSVDYTITVYAVTGRGESPASSKPISINYYGRY
B38: SEQ ID NO 84 (designed binder)
chain: VSDVPRDLEVVAATPTSLLISWDAPAVTVRYYRITYGEAGYSGGQEFTVPGSKSTATISERAEYVDYTITVYAVTGRGESPASSKPISINYERRY
B39: SEQ ID NO 85 (designed binder)
chain: B38 chain with A39L, G40S, Y41R, G44S, E60G, R61S, A62Y, E63G, R93Q, R94S
B40: SEQ ID NO 63 (designed binder)
chain: VSDVPRDLEVVAATPTSLLISWDAPAVTVRYYRITYGERERQHGYQEFTVPGSKSTATISRYRRRVDYTITVYAVTGRGESPASSKPISINYEPGY

Target: T1, hen egg white lysozyme (hen, UniProt P00698 19-147, biotinylated (HEL-b); sites not stated)
T1 construct: also called lyzozyme; HEL-b (biotinylated)
T1 sequence (P00698 19-147 limits assumed): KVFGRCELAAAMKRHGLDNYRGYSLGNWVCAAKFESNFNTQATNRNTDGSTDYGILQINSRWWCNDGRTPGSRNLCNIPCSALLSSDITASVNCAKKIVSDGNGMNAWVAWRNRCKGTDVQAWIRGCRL
Test: yeast display selection

| binding result | Binder |
| --- | --- |
| binds | B1 |
| binds | B2 |
| binds | B3 |
| binds | B4 |
| binds | B5 |
| binds | B6 |
| binds | B7 |
| binds | B8 |
| binds | B9 |
| binds | B10 |
| binds | B11 |
| binds | B12 |
| binds | B13 |
| binds | B14 |
| binds | B15 |
| binds | B16 |
| binds | B17 |
| binds | B18 |
| binds | B19 |
| binds | B20 |

| binding result | Binder |
| --- | --- |
| binds | B21 |
| binds | B22 |
| binds | B23 |
| binds | B24 |
| binds | B25 |
| binds | B26 |
| binds | B27 |
| binds | B28 |
| binds | B29 |
| binds | B30 |
| binds | B31 |
| binds | B32 |
| binds | B33 |
| binds | B34 |
| binds | B35 |
| binds | B36 |
| binds | B37 |
| binds | B38 |
| binds | B39 |
| binds | B40 |
